Publication PMC8558138
“And” between values parts separate entries of the source, which are not always exact repeats. Identical values can stand only once. Like-named read-outs stand apart in the source and are kept apart here. Each block holds one substance with its values, some of them ahead of it.

Assays:
[1] = target: Purified recombinant full-length HERV-W ENV protein (pHERV-W ENV) produced in E. coli (human); assay: automated capillary Western blot (Simple Western, WES); purified rENV monomers incubated in serum-free DMEM with sulfatides from bovine brain; detection with GN_mAb_Env01, or GN_mAb_Env04 after deglycosylation
[2] = target: Purified recombinant full-length HERV-W ENV protein (pHERV-W ENV) produced in E. coli (human); assay: automated capillary Western blot (Simple Western, WES); purified rENV incubated up to 24 h at 37 °C in DMEM with 10% FBS (also with 1.5% SDS overnight: only a low proportion of hexamer); samples denatured at 95 °C; detection with GN_mAb_Env01; denaturation-resistant oligomers
[3] = target: pHERV-W ENV expressed in transfected HEK293T cells (pCMV-HERV-W ENV) (human); assay: automated capillary Western blot (Simple Western, WES); lysates of transfected HEK293T cells in RIPA with 1% fos-cholin 16, soluble and insoluble fractions, denatured at 95 °C; 12-230 kDa and 66-440 kDa matrices; detection with GN_mAb_Env01, GN_mAb_Env04, GN_mAb_Env-K01 or anti-FLAG
[4] = target: pHERV-W ENV expressed in transfected HEK293T cells (pCMV-HERV-W ENV) (human); assay: as above; remark: listed apart in the source
[5] = target: pHERV-W ENV soluble antigen from MS brain active lesions (human (endogenous in MS brain lesions)); assay: automated capillary Western blot (Simple Western, WES); soluble fraction of frozen brain white matter blocks (MS active lesions), fos-cholin 16 extraction, >= 120 kDa enriched on AMICON, denaturing conditions; detection with GN_mAb_Env01-biotin, or GN_mAb_Env04 after deglycosylation

Substance: Purified recombinant full-length HERV-W ENV protein (pHERV-W ENV) produced in E. coli (natural protein)
- stoichiometry N [1]: 6
- stoichiometry N [2]: 6 and 2

- stoichiometry N [3]: 3
- stoichiometry N [4]: 2
Substance: pHERV-W ENV expressed in transfected HEK293T cells (pCMV-HERV-W ENV) (natural protein)

Substance: pHERV-W ENV soluble antigen from MS brain active lesions (natural protein)
- stoichiometry N [5]: 6
